Assay results as given in US20040018971A1 (published 2004).

Assays:
HLA-A*0201 [1] = biological target: T1, HLA-A*0201 (human); assay: competitive inhibition of 125I-labeled probe peptide binding to purified HLA-A*0201
T1 construct: also called HLA-A2.1; A2.1

HLA-A*0201 [2] = biological target: T2, HLA-A*0201 (human); assay: inhibition of 125I-labelled standard peptide binding to purified HLA, gel filtration; ratio = IC50 of standard / IC50 of test peptide
T2 construct: also called HLA-A2.1

| Binder | IC50 (HLA-A*0201 [1]) [nM] | relative binding ratio (HLA-A*0201 [2]) |
| --- | --- | --- |
| SLTEILKGGV [Her2/neu.144] | ≤ 500 |  |
| SLTLQGLGI [HER2/neu peptide, position 442, 9 amino acids] |  | 0.0003 ratio to standard peptide |
| SLTEILKGGV (also called Her2/neu.144) [HER2/neu peptide, position 144, 10 amino acids] |  | 0.015 ratio to standard peptide |
